B1: mixed-lineage kinase 4 (MLK4), endogenous (protein)
chain: MALRGAAGATDTPVSSAGGAPGGSASSSSTSSGGSASAGAGLWAALYDYEARGEDELSLRRGQLVEVLSQDAAVSGDEGWWAGQVQRRLGIFPANYVAPCRPAASPAPPPSRPSSPVHVAFERLELKELIGAGGFGQVYRATWQGQEVAVKAARQDPEQDAAAAAESVRREARLFAMLRHPNIIELRGVCLQQPHLCLVLEFARGGALNRALAAANAAPDPRAPGPRRARRIPPHVLVNWAVQIARGMLYLHEEAFVPILHRDLKSSNILLLEKIEHDDICNKTLKITDFGLAREWHRTTKMSTAGTYAWMAPEVIKSSLFSKGSDIWSYGVLLWELLTGEVPYRGIDGLAVAYGVAVNKLTLPIPSTCPEPFAKLMKECWQQDPHIRPSFALILEQLTAIEGAVMTEMPQESFHSMQDDWKLEIQQMFDELRTKEKELRSREEELTRAALQQKSQEELLKRREQQLAEREIDVLERELNILIFQLNQEKPKVKKRKGKFKRSRLKLKDGHRISLPSDFQHKITVQASPNLDKRRSLNSSSSSPPSSPTMMPRLRAIQLTSDESNKTWGRNTVFRQEEFEDVKRNFKKKGCTWGPNSIQMKDRTDCKERIRPLSDGNSPWSTILIKNQKTMPLASLFVDQPGSCEEPKLSPDGLEHRKPKQIKLPSQAYIDLPLGKDAQRENPAEAESWEEAASANAATVSIEMTPTNSLSRSPQRKKTESALYGCTVLLASVALGLDLRELHKAQAAEEPLPKEEKKKREGIFQRASKSRRSASPPTSLPSTCGEASSPPSLPLSSALGILSTPSFSTKCLLQMDSEDPLVDSAPVTCDSEMLTPDFCPTAPGSGREPALMPRLDTDCSVSRNLPSSFLQQTCGNVPYCASSKHRPSHHRRTMSDGNPTPTGATIISATGASALPLCPSPAPHSHLPREVSPKKHSTVHIVPQRRPASLRSRSDLPQAYPQTAVSQLAQTACVVGRPGPHPTQFLAAKERTKSHVPSLLDADVEGQSRDYTVPLCRMRSKTSRPSIYELEKEFLS
B2: HA-TRIM56 (TRIM56-HA, HA-tagged tripartite-motif 56) (protein)
chain: MVSHGSSPSLLEALSSDFLACKICLEQLRAPKTLPCLHTYCQDCLAQLADGGRVRCPECRETVPVPPEGVASFKTNFFVNGLLDLVKARACGDLRAGKPACALCPLVGGTSTGGPATARCLDCADDLCQACADGHRCTRQTHTHRVVDLVGYRAGWYDEEARERQAAQCPQHPGEALRFLCQPCSQLLCRECRLDPHLDHPCLPLAEAVRARRPGLEGLLAGVDNNLVELEAARRVEKEALARLREQAARVGTQVEEAAEGVLRALLAQKQEVLGQLRAHVEAAEEAARERLAELEGREQVARAAAAFARRVLSLGREAEILSLEGAIAQRLRQLQGCPWAPGPAPCLLPQLELHPGLLDKNCHLLRLSFEEQQPQKDGGKDGAGTQGGEESQSRREDEPKTERQGGVQPQAGDGAQTPKEEKAQTTREEGAQTLEEDRAQTPHEDGGPQPHRGGRPNKKKKFKGRLKSISREPSPALGPNLDGSGLLPRPIFYCSFPTRMPGDKRSPRITGLCPFGPREILVADEQNRALKRFSLNGDYKGTVPVPEGCSPCSVAALQSAVAFSASARLYLINPNGEVQWRRALSLSQASHAVAALPSGDRVAVSVAGHVEVYNMEGSLATRFIPGGKASRGLRALVFLTTSPQGHFVGSDWQQNSVVICDGLGQVVGEYKGPGLHGCQPGSVSVDKKGYIFLTLREVNKVVILDPKGSLLGDFLTAYHGLEKPRVTTMVDGRYLVVSLSNGTIHIFRVRSPDS

How the values were obtained:
[1] = molecular target: T1, IL-17RB ΔV403˜S416 (Del-3), HA-tagged
T1 chain: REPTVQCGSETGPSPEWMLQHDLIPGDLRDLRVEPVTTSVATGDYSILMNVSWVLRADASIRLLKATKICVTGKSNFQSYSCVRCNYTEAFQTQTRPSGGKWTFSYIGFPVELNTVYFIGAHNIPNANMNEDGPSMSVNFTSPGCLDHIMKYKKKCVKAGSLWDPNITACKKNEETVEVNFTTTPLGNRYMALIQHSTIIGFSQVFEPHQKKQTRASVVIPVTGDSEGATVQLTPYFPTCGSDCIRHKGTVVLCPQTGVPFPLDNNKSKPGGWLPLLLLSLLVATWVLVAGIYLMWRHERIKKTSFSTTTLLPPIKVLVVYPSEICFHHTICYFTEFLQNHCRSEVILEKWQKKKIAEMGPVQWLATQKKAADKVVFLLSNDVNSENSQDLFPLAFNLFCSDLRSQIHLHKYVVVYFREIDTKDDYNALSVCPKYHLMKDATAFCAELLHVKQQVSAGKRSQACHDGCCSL

[2] = molecular target: T2, interleukin-17 receptor B (IL-17RB), human, endogenous in pancreatic cancer cells
T2 chain: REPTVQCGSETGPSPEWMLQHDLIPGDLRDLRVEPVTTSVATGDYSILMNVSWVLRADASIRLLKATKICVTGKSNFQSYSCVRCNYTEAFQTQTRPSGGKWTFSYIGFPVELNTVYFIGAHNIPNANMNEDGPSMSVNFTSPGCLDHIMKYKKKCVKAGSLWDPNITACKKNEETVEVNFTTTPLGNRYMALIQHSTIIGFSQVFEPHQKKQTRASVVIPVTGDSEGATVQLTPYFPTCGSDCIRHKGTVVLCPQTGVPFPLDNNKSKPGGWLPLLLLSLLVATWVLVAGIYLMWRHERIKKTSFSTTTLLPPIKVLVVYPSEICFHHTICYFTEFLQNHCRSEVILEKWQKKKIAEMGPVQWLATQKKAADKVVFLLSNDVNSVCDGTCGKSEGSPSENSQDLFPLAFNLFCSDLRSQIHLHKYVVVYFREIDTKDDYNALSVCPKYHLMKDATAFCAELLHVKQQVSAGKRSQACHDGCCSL

[3] = molecular target: T3, IL-17RB-Flag (Flag-tagged IL-17RB, wild type)
T3 chain: T2 chain

| Protein | Y447 phosphorylation of IL-17RB (immunoblot with anti-P-Y447, FIG. 5D) [1] | IL-17RB phosphorylation at Y447 (immunoblot after MLK4 knockdown or knockout, FIG. 5A) [2] | in vitro ubiquitination assay with recombinant E1, E2 and ubiquitin (FIG. 18D) [3] |
| --- | --- | --- | --- |
| B1 | Del-3 failed to bind to MLK4 and phosphorylate Y447 | either knockdown (left) or knockout (right) of MLK4 nearly completely abolished IL-17RB phosphorylation at Y447 | – |
| B2 | – | – | purified TRIM56 could ubiquitinate IL-17RB at K470 in vitro |

From patent US20240124528
